The values that follow are results of earlier work, collected in PMC11806408.

The data set addresses BMP-10 GF growth factor (Homo sapiens) (UniProt O95393).

Sequence of BMP-10 GF growth factor (Homo sapiens) (O95393 317-424): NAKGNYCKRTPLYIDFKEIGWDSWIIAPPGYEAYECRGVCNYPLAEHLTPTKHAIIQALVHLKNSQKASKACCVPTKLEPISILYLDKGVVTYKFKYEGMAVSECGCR
Sequence of BMP-10 PD prodomain (O95393 22-316): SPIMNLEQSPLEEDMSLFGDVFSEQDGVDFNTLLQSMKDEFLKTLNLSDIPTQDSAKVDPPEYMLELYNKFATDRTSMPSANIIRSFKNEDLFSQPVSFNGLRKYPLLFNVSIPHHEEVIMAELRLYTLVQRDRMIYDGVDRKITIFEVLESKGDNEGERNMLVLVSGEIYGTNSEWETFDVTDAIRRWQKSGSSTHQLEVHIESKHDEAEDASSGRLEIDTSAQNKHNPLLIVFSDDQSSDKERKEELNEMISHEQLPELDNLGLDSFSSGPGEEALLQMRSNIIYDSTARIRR

The Kd is a measure of binding affinity in units of concentration. In the case of “BMP-10 PD prodomain (from UniProt O95393)”, the Kd is 7 nM.
